Measurements taken from paper PMC5830076.

Molecular target: ARΔ423-448 (Flag-AR with residues 423 to 448 removed) (human) (UniProt P10275)
Assay: proximity ligation

reduction of the interaction against WT AR (PLA): 40%
Substance: Myc-RAP74-CTD (from UniProt P35269 450-517) (domain or fragment)
